Tests used:
[1] = target: T1, human TNFR1-Fc fusion protein (human, UniProt P19438 29-211); assay: QCM, human TNFR1-Fc, moderate receptor density (86 Hz), biphasic fit, koff2 (high-affinity part)
T1 construct: range 29-211; Made in stably transfected HEK293 cells; coated on ELISA plates or immobilised on QCM chips; also called huTNFR1-Fc; human TNFR-Fc; not shown: Fc part from vector pSecTagL1-Fc
T1 sequence (looked up): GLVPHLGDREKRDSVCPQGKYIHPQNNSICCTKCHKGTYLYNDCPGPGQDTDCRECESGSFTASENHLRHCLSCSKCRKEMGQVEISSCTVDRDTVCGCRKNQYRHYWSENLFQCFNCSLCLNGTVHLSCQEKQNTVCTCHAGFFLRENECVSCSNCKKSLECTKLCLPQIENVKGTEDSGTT
Method: (§1) Real-time binding dynamics in protein-protein interactions were determined by quartz crystal microbalance measurements (A-100 C-Fast or Cell-200 C-Fast, Attana, Stockholm, Sweden). One of the binding partners (ligand, e.g. TNFR1-Fc) was chemically immobilized on a carboxyl sensor chip according to the manufacturer's protocol at different densities (nearly 200 Hz in the case of saturating conditions to confirm previously published results and 50-100 Hz, in particular at about 50 Hz, to establish conditions of lower receptor density, better resembling the situation on the cellular surface). Binding experiments were performed with samples (analyte) diluted in PBST (PBS, 0.1% Tween 20) at pH 7.4 with a flow rate of 25 µl/min at 37° C. The chip was regenerated with 25 µl 5 mM NaOH or 20 mM glycine, pH 2.0. Every third measurement, an injection of running buffer was measured which was subtracted from the binding curve. Data were collected using the software provided by Attana for the particular device and analyzed by Attaché Office Evaluation software (Attana, Stockholm, Sweden) and TraceDrawe (ridgview instruments, Vange, Sweden).

[2] = target: T1, human TNFR1-Fc fusion protein; assay: QCM, human TNFR1-Fc, moderate receptor density (86 Hz), biphasic fit, kon2 (high-affinity part)
Method: as §1

[3] = target: T1, human TNFR1-Fc fusion protein; assay: QCM, human TNFR1-Fc, moderate receptor density (86 Hz), biphasic fit, KD1 (low-affinity part)
Method: as §1

[4] = target: T1, human TNFR1-Fc fusion protein; assay: QCM, human TNFR1-Fc, moderate receptor density (86 Hz), biphasic fit, KD2 (high-affinity part)
Method: as §1

[5] = target: T1, human TNFR1-Fc fusion protein; assay: ELISA on coated huTNFR1-Fc, antibody titrated, signal as Binding [%]
Method: FIG. 13. […] Increasing concentrations were tested for their binding to huTNFR1-Fc in ELISA (n=3, mean±SD).
(§2) Microtiter plates were coated with 100 µl of the indicated protein (1 µg/ml in PBS, see Table 3.3) and incubated at 4° C. over night. The residual binding sites were blocked with 2% MPBS (skim milk in PBS, 200 µl per well) at room temperature for 2 hours and subsequently washed twice with PBS. 100 µl of the samples diluted in 2% MPBS were incubated at room temperature for 1 hour prior to the last incubation step with 100 µl of the HRP conjugated detection antibodies in 2% MPBS. In the case of competition experiments, both analyzed protein samples were prepared individually (either titrated or diluted to a single concentration) and mixed before they were applied to the plate. Bound protein was detected with 100 µl TMB substrate solution, the HRP-reaction was stopped by the addition of 50 µl 1 M H2SO4 and the absorption at the wavelength of 450 nm was measured using the Infinite microtiter plate reader (TECAN, Maennedorf, Switzerland). Between each incubation step and in advance of the detection, the plates were washed three times with PBST and twice with PBS.

[6] = target: T2, human TNFR2-Fc fusion protein (human, UniProt P20333 23-257); assay: ELISA on coated receptor-Fc fusion proteins, one antibody concentration (not given on the sheet)
T2 construct: whole entry named; also called huTNFR2
T2 sequence (looked up): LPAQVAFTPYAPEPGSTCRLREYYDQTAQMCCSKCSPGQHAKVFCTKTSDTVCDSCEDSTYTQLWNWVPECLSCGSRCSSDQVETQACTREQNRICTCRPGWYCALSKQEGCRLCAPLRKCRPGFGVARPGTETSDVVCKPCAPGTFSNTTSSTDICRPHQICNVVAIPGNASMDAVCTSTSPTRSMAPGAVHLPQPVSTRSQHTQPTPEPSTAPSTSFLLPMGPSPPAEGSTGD
Method: (§3) FIG. 12. Species selectivity of scFv13.7 derivatives. […] Presented are mean and SD of two individual experiments.
as §2

[7] = target: T3, mouse TNFR1-Fc fusion protein (mouse, UniProt P25118 30-212); assay: as above
T3 construct: range 30-212; also called moR1; not shown: Fc part from vector pSecTagL1-Fc
T3 sequence (looked up): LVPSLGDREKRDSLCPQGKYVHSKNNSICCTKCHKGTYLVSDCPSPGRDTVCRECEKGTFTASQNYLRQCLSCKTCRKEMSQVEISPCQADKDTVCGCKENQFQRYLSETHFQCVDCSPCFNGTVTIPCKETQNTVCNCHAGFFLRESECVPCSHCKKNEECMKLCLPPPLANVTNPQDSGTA
Method: as §3, §2

[8] = target: T4, mouse TNFR2-Fc fusion protein (mouse, UniProt P25119 23-258); assay: as above
T4 construct: range 23-258; not shown: Fc part from vector pSecTagL1-Fc
T4 sequence (looked up): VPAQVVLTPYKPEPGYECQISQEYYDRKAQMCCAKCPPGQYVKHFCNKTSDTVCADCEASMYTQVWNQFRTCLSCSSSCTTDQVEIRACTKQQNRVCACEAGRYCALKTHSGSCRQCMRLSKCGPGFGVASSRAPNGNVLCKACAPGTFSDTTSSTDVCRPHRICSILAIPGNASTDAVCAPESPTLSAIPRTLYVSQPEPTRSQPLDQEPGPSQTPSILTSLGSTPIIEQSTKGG
Method: as §3, §2

[9] = target: T1, human TNFR1-Fc fusion protein; assay: QCM, human TNFR1-Fc, moderate receptor density (86 Hz), biphasic fit, kon1 (low-affinity part)
Method: as §1

[10] = target: T1, human TNFR1-Fc fusion protein; assay: QCM, human TNFR1-Fc, moderate receptor density (86 Hz), biphasic fit, koff1 (low-affinity part)
Method: as §1

[11] = target: T1, human TNFR1-Fc fusion protein; assay: ELISA, human TNFR1-Fc

B1: ATROSAB (antibody, IgG1, V domains shown)
VH: QVQLVQSGAEVKKPGSSVKVSCKASGYTFTDFYINWVRQAPGQGLEWIGEIYPYSGHAYYNEKFKARVTITADKSTSTAYMELSSLRSEDTAVYYCARWDFLDYWGQGTTVTVSS
VL: DIVMTQSPLSLPVTPGEPASISCRSSQSLLHSNGNTYLHWYLQKPGQSPQLLIYTVSNRFSGVPDRFSGSGSGTDFTLKISRVEAEDVGVYYCSQSTHVPYTFGGGTKVEIKR
notes: Humanized full-length IgG1 with a modified Fc region deficient in mediating effector functions (made according to WO2012035141); also called full length IgG ATROSAB
For B1, which koff [1] is on record?
The koff was 0.000407 s⁻¹.

What about the kon [2] of the same binder?
Its kon is 1.06e+06 M⁻¹ s⁻¹.

And the Kd [3]?
The Kd was 78 nM.

What about the Kd [4] of the same binder?
Its Kd is 0.38 nM.

What about the “EC50 (read off the curve)” value [5] of the same binder?
Its value is about 1 nM.

Does B1 bind [6]?
Result: no binding

Does B1 bind [7]?
Result: no binding

Does B1 bind [8]?
Result: no binding

And the kon [9]?
The kon was 282000 M⁻¹ s⁻¹.

What about the koff [10] of the same binder?
The koff was 0.0219 s⁻¹.

And the “fold weaker binding (higher EC50) compared with IgG13.7” value [11]?
Its value is 1.4 fold.

Source: US10689452 (UNIVERSIT T STUTTGART, dated 2020)
